Patent US20190373867A1

Key:
[1] = molecular target: endogenous mouse SIRPα of wildtype C57BL/6 mice (NP_031573.2) (mouse (C57BL/6)) (UniProt P97797); experiment: flow cytometry; CD47 protein on peritoneal cavity cells of wildtype C57BL/6 mice, detected with anti-CD47 human antibody and AF647-Anti-hIgG
[2] = molecular target: endogenous mouse SIRPα of wildtype BALB/c mice (mouse (BALB/c)) (UniProt P97797); experiment: flow cytometry; CD47 protein on peritoneal cavity cells of wildtype BALB/c mice, detected with anti-CD47 human antibody and AF647-Anti-hIgG

UniProt P97797, sequence (P97797 other isoform, or with tags, fused parts or gaps): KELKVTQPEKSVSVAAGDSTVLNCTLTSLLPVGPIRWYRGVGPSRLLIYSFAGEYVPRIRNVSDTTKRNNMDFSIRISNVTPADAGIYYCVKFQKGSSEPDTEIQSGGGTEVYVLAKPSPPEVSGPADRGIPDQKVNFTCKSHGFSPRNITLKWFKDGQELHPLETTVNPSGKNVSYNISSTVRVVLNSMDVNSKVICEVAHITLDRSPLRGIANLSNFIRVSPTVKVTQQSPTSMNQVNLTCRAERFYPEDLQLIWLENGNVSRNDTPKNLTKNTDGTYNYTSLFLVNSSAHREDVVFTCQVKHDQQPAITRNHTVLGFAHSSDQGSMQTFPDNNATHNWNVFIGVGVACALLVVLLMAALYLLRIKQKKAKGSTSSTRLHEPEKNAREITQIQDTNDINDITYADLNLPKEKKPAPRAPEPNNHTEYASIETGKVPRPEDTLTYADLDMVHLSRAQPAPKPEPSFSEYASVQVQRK

- geometric mean of flow cytometry signal [1]: 100
- geometric mean of flow cytometry signal [2]: 100
Substance: mouse CD47 proteins (added to peritoneal cavity cells, Example 16) (ligand)
